{"source": "paper PMC8278322", "about": "(Cancer research, 2020)", "target": "T1, Gal4-fused SMAD4 (UniProt Q13485 1-552)", "T1 sequence (looked up)": "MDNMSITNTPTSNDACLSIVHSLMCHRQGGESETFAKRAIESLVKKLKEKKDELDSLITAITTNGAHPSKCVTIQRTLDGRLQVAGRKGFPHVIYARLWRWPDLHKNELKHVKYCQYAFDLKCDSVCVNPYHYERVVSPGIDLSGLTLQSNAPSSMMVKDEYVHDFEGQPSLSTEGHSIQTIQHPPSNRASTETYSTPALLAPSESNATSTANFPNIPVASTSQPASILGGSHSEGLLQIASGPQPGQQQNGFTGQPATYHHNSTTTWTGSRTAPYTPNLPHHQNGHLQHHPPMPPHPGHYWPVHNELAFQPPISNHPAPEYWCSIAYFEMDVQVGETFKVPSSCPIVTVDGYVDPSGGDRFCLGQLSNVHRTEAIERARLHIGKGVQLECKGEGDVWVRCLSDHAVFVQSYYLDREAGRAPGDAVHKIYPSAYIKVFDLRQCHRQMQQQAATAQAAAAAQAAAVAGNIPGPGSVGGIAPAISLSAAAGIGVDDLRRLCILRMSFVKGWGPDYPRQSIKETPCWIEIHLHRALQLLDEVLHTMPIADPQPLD", "assay": "two-hybrid", "data": [{"binder": "pVP16-fused FOXL2^C134W (natural protein, human, UniProt P58012 1-376, looked up) MMASYPEPEDAAGALLAPETGRTVKEPEGPPPSPGKGGGGGGGTAPEKPDPAQKPPYSYVALIAMAIRESAEKRLTLSGIYQYIIAKFPFYEKNKKGWQNSIRHNLSLNECFIKVPREGGGERKGNYWTLDPAWEDMFEKGNYRRRRRMKRPFRPPPAHFQPGKGLFGAGGAAGGCGVAGAGADGYGYLAPPKYLQSGFLNNSWPLPQPPSPMPYASCQMAAAAAAAAAAAAAAGPGSPGAAAVVKGLAGPAASYGPYTRVQSMALPPGVVNSYNGLGGPPAAPPPPPHPHPHPHAHHLHAAAAPPPAPPHHGAAAPPPGQLSPASPATAAPPAPAPTSAPGLQFACARQPELAMMHCSYWDHDSKTGALHSRLDL", "values": [{"measurement": "fold luciferase activity against pVP16-fused wildtype FOXL2", "value": "~20", "unit": "fold"}]}]}
